Measured values from PMC7064775, “Cyclic di-GMP Signaling in Bacillus subtilis Is Governed by Direct Interactions of Diguanylate Cyclases and Cognate Receptors” (mBio, 2020).

B4: His6-DgcK-ΔN175 (domain or fragment, Bacillus subtilis NCIB 3610, UniProt P54595 176-359, looked up)
chain: DHETNAHLLFKQYKFQAHFDFLTGVYNRRKFEETTKALYQQAADTPHFQFALIYMDIDHFKTINDQYGHHEGDQVLKELGLRLKQTIRNTDPAARIGGEEFAVLLPNCSLDKAARIAERIRSTVSDAPIVLTNGDELSVTISLGAAHYPNNTEQPGSLPILADQMLYKAKETGRNRVCFSEKKE
notes: Diguanylate cyclase DgcK of Bacillus subtilis NCIB 3610, soluble domain, residues 176 to 359 (construct pAT02b); also called His-DgcK-ΔN175; soluble domain of DgcK; source: E. coli BL21(DE3), purified (Ni-NTA, SEC); also coexpressed with YdaK-ΔN111 in E. coli BL21(DE3), in lysate; not shown: His6, N-terminal, kept
B5: GST-His6-DgrA (natural protein, Bacillus subtilis NCIB 3610, UniProt P38491 1-217, looked up)
chain: MIEIGENVLLEYIEENELKKAKSKAVSIENNELLIAYPVDVVTGRTVILHNDMEVTVEFVGKDEVPYRFISRIKGKVKDKLQMICLEMPPREKMKRIQRRQYVRTDAVLDVQIQPGNEEEIRTLSYNISAGGIAVVLADGLSFQSGESLRLIIRLPEEEHTRQIETEAVVRRIFNDPKSEKRKMTLEYSEIAAGDQQALLQYCIRRQLNKRRKARME
notes: PilZ domain c-di-GMP receptor DgrA of Bacillus subtilis NCIB 3610, residues 1 to 217, full length (construct pPB48); also called GST-His-DgrA; PilZ protein DgrA; source: E. coli BL21(DE3), purified (Ni-NTA, SEC); not shown: GST, N-terminal, kept; His6, N-terminal, kept

Tests used:
[1] = target: T1, YdaK-ΔN111 (Bacillus subtilis, UniProt P96585, R202A); experiment: hydrogen-deuterium exchange mass spectrometry; conditions: 50 µM protein, 1 mM c-di-GMP; pH 7.5, 20 mM MgCl2, 25 °C; I-site mutant, tested for loss of binding
T1 construct: soluble degenerate GGDEF domain, residues 112 to 283 (4 TM helices removed), from E. coli BL21(DE3)
T1 sequence (P96585 112-283 R202A): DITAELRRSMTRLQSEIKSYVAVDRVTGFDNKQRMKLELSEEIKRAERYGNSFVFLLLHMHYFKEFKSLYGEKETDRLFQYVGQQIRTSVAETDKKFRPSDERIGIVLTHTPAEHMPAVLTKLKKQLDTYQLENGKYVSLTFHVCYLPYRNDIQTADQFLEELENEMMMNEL

[2] = target: T2, DgcK-ΔN175 (Bacillus subtilis, UniProt P54595); experiment: HPLC of nucleotide co-purified with the denatured protein; format: binding; conditions: ligand co-purified from E. coli host
T2 construct: soluble GGDEF domain, residues 176 to 359 (6 TM helices removed); N-terminal His6 or GST-His6, from E. coli BL21(DE3)

[3] = target: T3, YdaK-ΔN111 (Bacillus subtilis, UniProt P96585); experiment: hydrogen-deuterium exchange mass spectrometry; format: binding; conditions: 50 µM protein, 1 mM c-di-GMP; pH 7.5, 20 mM MgCl2, 25 °C; I-site (RXXD)
T3 construct: soluble degenerate GGDEF domain, residues 112 to 283 (4 TM helices removed), from E. coli BL21(DE3)

[4] = target: B4; experiment: pull-down; 2 nmol His6-DgcK-ΔN175 immobilised on nickel-Sepharose beads, 20 nmol prey, with or without added c-di-GMP; buffer A (20 mM HEPES-Na pH 7.5, 250 mM NaCl, 20 mM MgCl2, 20 mM KCl, 0.05% Tween); elution with 500 mM imidazole; Coomassie-stained SDS-PAGE; conditions: both partners purified
[5] = target: B4; experiment: pull-down; 2 nmol GST-His6-YdaK-ΔN111 (or GST) immobilised on glutathione-Sepharose 4B, 20 nmol His6-DgcK-ΔN175, with or without added c-di-GMP; 4°C, buffer A (20 mM HEPES-Na pH 7.5, 250 mM NaCl, 20 mM MgCl2, 20 mM KCl, 0.05% Tween); Coomassie-stained SDS-PAGE; conditions: both partners purified
[6] = target: T4, GST-His6-DgcK-ΔN175 (Bacillus subtilis NCIB 3610, UniProt P54595 176-359); experiment: pull-down; 2 nmol GST-His6-DgcK-ΔN175 immobilised on glutathione-Sepharose 4B, 20 nmol His6-YdaK-ΔN111 or its R202A variant, with or without added c-di-GMP; 4°C, buffer A; Coomassie-stained SDS-PAGE; conditions: both partners purified
T4 construct: Diguanylate cyclase DgcK of Bacillus subtilis NCIB 3610, soluble domain, residues 176 to 359 (construct pAT02a); also called pAT02a; source: E. coli BL21(DE3), purified (Ni-NTA, SEC); not shown: GST, N-terminal, kept; His6, N-terminal, kept
T4 sequence (looked up): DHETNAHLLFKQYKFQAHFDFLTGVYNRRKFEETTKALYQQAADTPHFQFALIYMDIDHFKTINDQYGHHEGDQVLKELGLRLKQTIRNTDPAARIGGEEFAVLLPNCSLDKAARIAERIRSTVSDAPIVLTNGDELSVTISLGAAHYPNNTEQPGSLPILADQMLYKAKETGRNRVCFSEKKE

[7] = target: B5; experiment: pull-down; 2 nmol GST-His6-DgrA (or GST control) immobilised on glutathione-Sepharose beads, 20 nmol His6-DgcK-ΔN175, with or without 2 mM c-di-GMP; 4°C, buffer A; Coomassie-stained SDS-PAGE; conditions: both partners purified
[8] = target: T5, DgcP-StrepII (Bacillus subtilis NCIB 3610, UniProt O34325 1-579); experiment: pull-down; 2 nmol DgcP-StrepII immobilised on Strep-Tactin-Sepharose, 20 nmol GST-His6-DgrA, with or without 2 mM c-di-GMP; buffer A; elution with 50 mM D-biotin; Coomassie-stained SDS-PAGE; conditions: both partners purified
T5 construct: soluble diguanylate cyclase DgcP of Bacillus subtilis NCIB 3610, residues 1 to 579, full length (construct pPB25); also called pPB25; source: E. coli BL21(DE3), purified (StrepTrap HP, SEC); not shown: StrepII, C-terminal, kept
T5 sequence (looked up): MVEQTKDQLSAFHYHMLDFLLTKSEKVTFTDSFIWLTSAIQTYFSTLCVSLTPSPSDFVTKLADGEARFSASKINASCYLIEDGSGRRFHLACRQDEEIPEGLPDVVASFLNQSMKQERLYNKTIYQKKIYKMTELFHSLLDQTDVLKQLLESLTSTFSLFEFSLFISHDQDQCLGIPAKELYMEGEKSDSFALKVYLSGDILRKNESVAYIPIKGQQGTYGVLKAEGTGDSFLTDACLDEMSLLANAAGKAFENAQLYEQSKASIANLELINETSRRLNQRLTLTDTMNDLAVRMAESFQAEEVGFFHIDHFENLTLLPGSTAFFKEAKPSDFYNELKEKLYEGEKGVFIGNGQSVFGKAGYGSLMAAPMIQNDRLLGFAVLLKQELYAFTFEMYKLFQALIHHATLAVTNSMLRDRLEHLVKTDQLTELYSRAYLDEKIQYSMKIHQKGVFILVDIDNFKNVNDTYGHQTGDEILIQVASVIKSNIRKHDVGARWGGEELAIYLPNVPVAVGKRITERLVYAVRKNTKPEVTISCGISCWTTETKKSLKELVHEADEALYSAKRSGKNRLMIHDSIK

## Nc1nc2c(ncn2[C@@H]2O[C@@H]3COP(=O)(O)O[C@H]4[C@@H](O)[C@H](n5cnc6c(=O)[nH]c(N)nc65)O[C@@H]4COP(=O)(O)O[C@H]3[C@H]2O)c(=O)[nH]1 [c-di-GMP]
[1]
  no alterations in HDX: indicating the inability of c-di-GMP to bind to this variant
[2]
  loading: ~ 25%
[3]
  decrease in H/D exchange: presence of c-di-GMP resulted in a strong decrease in H/D exchange in many parts of YdaK

B1: GST-YdaK-ΔN111 (domain or fragment, Bacillus subtilis NCIB 3610, UniProt P96585 112-283, looked up)
chain: DITAELRRSMTRLQSEIKSYVAVDRVTGFDNKQRMKLELSEEIKRAERYGNSFVFLLLHMHYFKEFKSLYGEKETDRLFQYVGQQIRTSVRETDKKFRPSDERIGIVLTHTPAEHMPAVLTKLKKQLDTYQLENGKYVSLTFHVCYLPYRNDIQTADQFLEELENEMMMNEL
notes: c-di-GMP receptor YdaK of Bacillus subtilis NCIB 3610, soluble domain (degenerated GGDEF domain), residues 112 to 283 (construct pAT03c); also called pAT03c; source: E. coli BL21(DE3), purified (GSTrap FF, SEC); not shown: GST, N-terminal, kept
[4]
  binding result: binds

B2: GST-His6-YdaK-ΔN111 (domain or fragment, Bacillus subtilis NCIB 3610, UniProt P96585 112-283, looked up)
chain: DITAELRRSMTRLQSEIKSYVAVDRVTGFDNKQRMKLELSEEIKRAERYGNSFVFLLLHMHYFKEFKSLYGEKETDRLFQYVGQQIRTSVRETDKKFRPSDERIGIVLTHTPAEHMPAVLTKLKKQLDTYQLENGKYVSLTFHVCYLPYRNDIQTADQFLEELENEMMMNEL
notes: c-di-GMP receptor YdaK of Bacillus subtilis NCIB 3610, soluble domain, residues 112 to 283 (construct pAT03a); also called pAT03a; not shown: GST, N-terminal, kept
[5]
  binding result: binds

B3: His6-YdaK-ΔN111 (domain or fragment, Bacillus subtilis NCIB 3610, UniProt P96585 112-283, looked up)
chain: DITAELRRSMTRLQSEIKSYVAVDRVTGFDNKQRMKLELSEEIKRAERYGNSFVFLLLHMHYFKEFKSLYGEKETDRLFQYVGQQIRTSVRETDKKFRPSDERIGIVLTHTPAEHMPAVLTKLKKQLDTYQLENGKYVSLTFHVCYLPYRNDIQTADQFLEELENEMMMNEL
notes: c-di-GMP receptor YdaK of Bacillus subtilis NCIB 3610, soluble domain, residues 112 to 283 (construct pAT03b); also called native YdaK; pAT03b; source: E. coli BL21(DE3), purified (Ni-NTA, SEC); not shown: His6, N-terminal, kept
[6]
  binding result: binds

## B4
[7]
  binding result: binds

## B5
[8]
  binding result: binds
